Data taken from paper PMC12126530.

What was measured:
[1] = molecular target: Full-length Hsc70-T204A (ATPase deficient mutant) (human) (UniProt P11142); test: NMR 15N-CPMG relaxation dispersion and exchange-induced shifts; 15N-labelled JDP observed, unlabelled Hsc70-T204A added to a molar ratio of 0.1 (DNAJB6 JD-GF 200 uM, DNAJB6 JD 350 uM, DNAJB1 300 uM); 25 °C; 20 mM HEPES pH 7.0, 50 mM KCl, 2.5 mM MgCl2; ATP-regenerating system with 2.5 mM ATP; fit to a two-state binding model
[2] = molecular target: Full-length Hsc70-T204A (ATPase deficient mutant) (human) (UniProt P11142); test: NMR 15N-CPMG relaxation dispersion with exchange-induced shifts; 15N-labelled JDP (DNAJB6 JD-GF 200 μM, DNAJB6 JD 350 μM, DNAJB1 300 μM) with unlabelled Hsc70-T204A at a molar ratio of 0.1, ATP-regenerating system, 20 mM HEPES pH 7.0, 50 mM KCl, 2.5 mM MgCl2, 25 °C, 600, 800 and 950 MHz; fit to a 2-state model; kex = kon app + koff

Chain of Full-length Hsc70-T204A (ATPase deficient mutant) (human) (P11142 whole entry T204A): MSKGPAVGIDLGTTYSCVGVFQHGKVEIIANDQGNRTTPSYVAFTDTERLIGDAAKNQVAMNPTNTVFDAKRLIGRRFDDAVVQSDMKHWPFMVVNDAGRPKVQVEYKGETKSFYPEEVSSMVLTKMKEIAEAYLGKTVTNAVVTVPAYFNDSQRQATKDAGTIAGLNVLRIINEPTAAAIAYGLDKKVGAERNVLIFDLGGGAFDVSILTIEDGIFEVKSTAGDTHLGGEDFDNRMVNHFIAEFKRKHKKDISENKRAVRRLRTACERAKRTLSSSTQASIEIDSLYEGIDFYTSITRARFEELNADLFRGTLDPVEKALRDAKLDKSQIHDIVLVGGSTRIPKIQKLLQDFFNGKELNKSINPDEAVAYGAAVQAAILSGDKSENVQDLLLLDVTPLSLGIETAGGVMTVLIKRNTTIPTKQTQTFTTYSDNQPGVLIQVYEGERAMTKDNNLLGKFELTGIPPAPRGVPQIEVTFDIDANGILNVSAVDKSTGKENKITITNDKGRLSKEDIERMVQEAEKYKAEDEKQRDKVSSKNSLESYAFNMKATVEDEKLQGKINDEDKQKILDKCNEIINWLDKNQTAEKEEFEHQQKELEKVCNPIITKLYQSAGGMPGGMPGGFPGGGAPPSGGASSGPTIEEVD

kon [1] | Kd [2] | kex [2] | koff [2] | Substance
1.54e+06 M⁻¹ s⁻¹ | 380 µM | 600 s⁻¹ | 580 s⁻¹ | DNAJB6 JD-GF (from UniProt O75190 1-326) (domain or fragment)
– | 3 µM | 3000 s⁻¹ | 2700 s⁻¹ | DNAJB6 JD (from UniProt O75190 1-326) (domain or fragment)
